Results as given in patent publication US20180030151A1.
Read-outs that look alike come from different tables or passages of the source.

Experiments:
[1] = molecular target: recombinant human TFPI (tissue factor pathway inhibitor) (human) (UniProt P10646); assay: cell-based or functional assay
[2] = molecular target: recombinant human TFPI (tissue factor pathway inhibitor) (human) (UniProt P10646)
[3] = molecular target: recombinant human TFPI (tissue factor pathway inhibitor) (human) (UniProt P10646); assay: cell-based or functional assay; remark: listed apart in the source
[4] = molecular target: recombinant human TFPI (tissue factor pathway inhibitor) (human) (UniProt P10646); assay: cell-based or functional assay; remark: listed apart in the source
[5] = molecular target: recombinant human TFPI (tissue factor pathway inhibitor) (human) (UniProt P10646); assay: cell-based or functional assay; remark: listed apart in the source
[6] = molecular target: recombinant human TFPI (tissue factor pathway inhibitor) (human) (UniProt P10646); remark: listed apart in the source
[7] = molecular target: recombinant human TFPI (tissue factor pathway inhibitor) (human) (UniProt P10646); remark: listed apart in the source
[8] = molecular target: recombinant human TFPI (tissue factor pathway inhibitor) (human) (UniProt P10646); remark: listed apart in the source
[9] = molecular target: recombinant human TFPI (tissue factor pathway inhibitor) (human) (UniProt P10646); assay: cell-based or functional assay; remark: listed apart in the source
[10] = molecular target: recombinant human TFPI (tissue factor pathway inhibitor) (human) (UniProt P10646); remark: listed apart in the source

B1: mAb2021 (anti-TFPI Ab, Novo Nordisk) (antibody, from another filing, V domains shown)
VH: EVQLVESGGGLVKPGGSLRLSCAASGFTFSNYAMSWVRQTPEKRLEWVATISRSGSYSYFPDSVQGRFTISRDNAKNSLYLQMNSLRAEDTAVYYCARLGGYDEGDAMDSWGQGTTVTVSS
VL: DIVMTQTPLSLSVTPGQPASISCKSSQSLLESDGKTYLNWYLQKPGQSPQLLIYLVSILDSGVPDRFSGSGSGTDFTLKISRVEAEDVGVYYCLQATHFPQTFGGGTKVEIKR
Work on B1 yielded a % of Normalized, TF/FVIIa/FX complex assay, Ab 12.5 nM [1] of 12.4%, a % of Normalized, TF/FVIIa/FX complex assay, Ab 25 nM [1] of 54.4% and a % of Normalized, TF/FVIIa/FX complex assay, Ab 50 nM [1] of 86.1%. The % of Normalized, TF/FVIIa/FX complex assay, Ab 100 nM [1] was 100%, the FXa assay % of FXa alone, 2.5 nM Ab, 10 nM TFPI [2] was 8.7% and the FXa assay % of FXa alone, 5 nM Ab, 10 nM TFPI [2] was 33.6%. The FXa assay % of FXa alone, 10 nM Ab, 10 nM TFPI [2] was 92.4%, the FXa assay % of FXa alone, 20 nM Ab, 10 nM TFPI [2] was 91.4% and the FXa assay OD, 2.5 nM Ab, 10 nM TFPI [2] was 0.071. For the same binder, the FXa assay OD, 5 nM Ab, 10 nM TFPI [2] was 0.273, the FXa assay OD, 10 nM Ab, 10 nM TFPI [2] was 0.75 and the FXa assay OD, 20 nM Ab, 10 nM TFPI [2] was 0.742. The A405, TF/FVIIa/FX complex assay, Ab 1.56 nM [3] was 0.137, the A405, TF/FVIIa/FX complex assay, Ab 3.13 nM [3] was 0.143 and the A405, TF/FVIIa/FX complex assay, Ab 6.25 nM [3] was 0.156. It also gave an A405, TF/FVIIa/FX complex assay, Ab 12.5 nM [3] of 0.241, an A405, TF/FVIIa/FX complex assay, Ab 25 nM [3] of 0.932 and an A405, TF/FVIIa/FX complex assay, Ab 50 nM [3] of 0.953. For the same binder, the A405, TF/FVIIa/FX complex assay, Ab 100 nM [3] was 0.952, the A405, TF/FVIIa/FX complex assay, Ab 1.56 nM [4] was 0.044 and the A405, TF/FVIIa/FX complex assay, Ab 3.13 nM [4] was 0.046. The A405, TF/FVIIa/FX complex assay, Ab 6.25 nM [4] was 0.062, the A405, TF/FVIIa/FX complex assay, Ab 12.5 nM [4] was 0.105 and the A405, TF/FVIIa/FX complex assay, Ab 25 nM [4] was 0.462. For the same binder, the A405, TF/FVIIa/FX complex assay, Ab 50 nM [4] was 0.73, the A405, TF/FVIIa/FX complex assay, Ab 100 nM [4] was 0.852 and the A405, TF/FVIIa/FX complex assay, Ab 1.56 nM [5] was 0.151. It also gave an A405, TF/FVIIa/FX complex assay, Ab 3.13 nM [5] of 0.171, an A405, TF/FVIIa/FX complex assay, Ab 6.25 nM [5] of 0.18 and an A405, TF/FVIIa/FX complex assay, Ab 12.5 nM [5] of 0.233. For the same binder, the A405, TF/FVIIa/FX complex assay, Ab 25 nM [5] was 0.955, the A405, TF/FVIIa/FX complex assay, Ab 50 nM [5] was 0.951 and the A405, TF/FVIIa/FX complex assay, Ab 100 nM [5] was 0.966. For the same binder, the FXa assay % of FXa alone, 2.5 nM Ab, 10 nM TFPI [6] was 5.6%, the FXa assay % of FXa alone, 5 nM Ab, 10 nM TFPI [6] was 10.7% and the FXa assay % of FXa alone, 10 nM Ab, 10 nM TFPI [6] was 77.7%. It also gave an FXa assay % of FXa alone, 20 nM Ab, 10 nM TFPI [6] of 84.5%, an FXa assay OD, 2.5 nM Ab, 10 nM TFPI [6] of 0.0485 and an FXa assay OD, 5 nM Ab, 10 nM TFPI [6] of 0.0935. It also gave an FXa assay OD, 10 nM Ab, 10 nM TFPI [6] of 0.676, an FXa assay OD, 20 nM Ab, 10 nM TFPI [6] of 0.735 and an FXa assay % of FXa alone, 2.5 nM Ab, 10 nM TFPI [7] of 8.5%. For the same binder, the FXa assay % of FXa alone, 5 nM Ab, 10 nM TFPI [7] was 66.6%, the FXa assay % of FXa alone, 10 nM Ab, 10 nM TFPI [7] was 92.3% and the FXa assay % of FXa alone, 20 nM Ab, 10 nM TFPI [7] was 87.6%. The FXa assay OD, 2.5 nM Ab, 10 nM TFPI [7] was 0.07, the FXa assay OD, 5 nM Ab, 10 nM TFPI [7] was 0.55 and the FXa assay OD, 10 nM Ab, 10 nM TFPI [7] was 0.763. It also gave an FXa assay OD, 20 nM Ab, 10 nM TFPI [7] of 0.724, an FXa assay % of FXa alone, 2.5 nM Ab, 10 nM TFPI [8] of 12.3% and an FXa assay % of FXa alone, 5 nM Ab, 10 nM TFPI [8] of 90%. For the same binder, the FXa assay % of FXa alone, 10 nM Ab, 10 nM TFPI [8] was 96.5%, the FXa assay % of FXa alone, 20 nM Ab, 10 nM TFPI [8] was 88.8% and the FXa assay OD, 2.5 nM Ab, 10 nM TFPI [8] was 0.0945. It also gave an FXa assay OD, 5 nM Ab, 10 nM TFPI [8] of 0.693, an FXa assay OD, 10 nM Ab, 10 nM TFPI [8] of 0.743 and an FXa assay OD, 20 nM Ab, 10 nM TFPI [8] of 0.683. The % of Normalized, TF/FVIIa/FX complex assay, Ab 1.56 nM [9] was 15.8%, the % of Normalized, TF/FVIIa/FX complex assay, Ab 3.13 nM [9] was 17.9% and the % of Normalized, TF/FVIIa/FX complex assay, Ab 6.25 nM [9] was 18.8%. It also gave a % of Normalized, TF/FVIIa/FX complex assay, Ab 12.5 nM [9] of 24.4%, a % of Normalized, TF/FVIIa/FX complex assay, Ab 25 nM [9] of 100% and a % of Normalized, TF/FVIIa/FX complex assay, Ab 50 nM [9] of 99.6%. The % of Normalized, TF/FVIIa/FX complex assay, Ab 100 nM [9] was 101%, the FXa assay % of FXa alone, 2.5 nM Ab, 10 nM TFPI [10] was 6.2% and the FXa assay % of FXa alone, 5 nM Ab, 10 nM TFPI [10] was 16.4%. The FXa assay % of FXa alone, 10 nM Ab, 10 nM TFPI [10] was 87.5%, the FXa assay % of FXa alone, 20 nM Ab, 10 nM TFPI [10] was 84.6% and the FXa assay OD, 2.5 nM Ab, 10 nM TFPI [10] was 0.0475. The FXa assay OD, 5 nM Ab, 10 nM TFPI [10] was 0.125 and the FXa assay OD, 20 nM Ab, 10 nM TFPI [10] was 0.644.
